Columns and labels:
[1] = biological target: endogenous Bcr-Abl of K562 cells (human leukemia Bcr-Abl+ cells; wild-type, unmutated) (human) (UniProt P11274)
[2] = biological target: p210 BCR-ABL1 T315I kinase domain mutant stably expressed in Ba/F3 cells (Homo sapiens (Human)) (UniProt P11274)
[3] = biological target: p210 BCR-ABL1 E255V/T315I compound mutant stably expressed in Ba/F3 cells (Homo sapiens (Human)) (UniProt P11274)
[4] = biological target: p210 BCR-ABL1 T315I kinase domain mutant stably expressed in Ba/F3 cells (Homo sapiens (Human)) (UniProt P11274); remark: listed apart in the source
[5] = biological target: p210 BCR-ABL1 E255V kinase domain mutant stably expressed in Ba/F3 cells (Homo sapiens (Human)) (UniProt P11274)
[6] = biological target: p210 Bcr-Abl (native, non-mutated) stably expressed in Ba/F3 cells (Homo sapiens (Human)) (UniProt P11274)

colony forming assay (transformative ability) of K562 cells (fold decrease) [1]	colony forming assay (transformative ability) of Ba/F3-p210-T315I cells [2]	colony formation assay of Ba/F3 cells expressing BCR-ABL1 E255V/T315I [3]	cell proliferation (MTS assay) of Ba/F3 cells expressing BCR-ABL1 T315I (fold reduction) [4]	colony formation assay of Ba/F3 cells expressing BCR-ABL1 T315I (fold reduction) [4]	cell proliferation (MTS assay) of Ba/F3 cells expressing BCR-ABL1 E255V (fold reduction) [5]	colony formation assay of Ba/F3 cells expressing BCR-ABL1 E255V (fold reduction) [5]	apoptosis (Annexin V / 7-AAD, 72 h) of Ba/F3 cells expressing native BCR-ABL1 (fold increase) [6]	cell proliferation (MTS assay) of Ba/F3 cells expressing native BCR-ABL1 (fold reduction) [6]	Binder
3	40%								EGFP-CC^mut3 (expressed from pEGFP-CC^mut3) (designed binder) MVDPVGFAEAWKAQFPDSEPPRMELRSVGDIEQELERAEARIRRDEQRVNQERFRMIYLETLLAKEKKSYDR
		50%	3	> 10	3	> 10	3	> 2	mCherry-CC^mut3 fusion (expressed from pmCherry-CC^mut3) (designed binder) MVDPVGFAEAWKAQFPDSEPPRMELRSVGDIEQELERAEARIRRDEQRVNQERFRMIYLETLLAKEKKSYDR
